Laboratory results taken from the supplement of paper PMC10567573.
± gives the standard deviation.

Assay: protein stability index of a GFP-peptide fusion (GPS, HEK-293T) (PSI 1-6); higher = more stable
[1] = treatment: DMSO, c terminus: a fixed tail appended
[2] = treatment: MLN4924 1 uM, 8 h, c terminus: a fixed tail appended
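Further: 24-mer peptide tiles fused after GFP, lentivirally expressed, FACS-sorted into six equal bins by GFP/DsRed ratio, decoded by Illumina sequencing, PSI is the read-weighted mean bin number.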

Sequence	protein stability index [1]	protein stability index [2]	protein stability index (treatment: DMSO, c terminus: native)	protein stability index (treatment: MLN4924 1 uM, 8 h, c terminus: native)
EYECRRRMLMKRLDVTVQSFGWSD [FAM98B]	2.48 ± 0.14	2.45 ± 0.11	–	–
AQRHRELYLRVELSDVQNPAISIT [HACD3]	2.16 ± 0.34	2.18 ± 0.15	–	–
PVKELAALPKATILDLSCNKLTTL [LRRC59]	3.26 ± 0.1	3.43 ± 0.35	–	–
DCLAAWEEWLLVGTKQGHLLLYRI [VPS39]	2.92 ± 1.1	2.51 ± 0.32	–	–
TQNHAASALPTGSPKRGTAPGDLS [FBF1]	5.08 ± 0.18	5.13 ± 0.21	–	–
DTFHQDNQPSGLIRTYLGRSPLVS [RHOBTB3]	3.24 ± 0.1	3.24 ± 0.16	–	–
ETSVFDQFGIKDVFDNAIRAALIS [RHOBTB1]	2.3 ± 0.22	2.18 ± 0.33	–	–
ENDSTPTVSTSEVTSQQEPQIPVD [TAF7L]	5.53 ± 0.2	5.59 ± 0.26	–	–
LEPPEEEIIEGNTKSHIMLVQRQM [NECAB1]	4.64 ± 0.16	4.8 ± 0.24	–	–
QSFCGENIMMPMGGMMPPGPGIPP [ZNF207]	3.15 ± 0.31	3.27 ± 0.26	–	–
WYVCRTQGVEGDHCVTSDPATSPL [TRIM35]	3.15 ± 0.18	2.98 ± 0.29	–	–
FSTYTSDKDENKLSEASGGRAENG [ZC3H15]	5.38 ± 0.44	5.23 ± 0.58	–	–
KEACDQHGPDLYPKFKKWCDDYFF [CPOX]	2.31 ± 0.27	2.58 ± 0.32	–	–
LDQPVSAPPSPRDISMEIDSPENM [CCDC6]	5.47 ± 0.2	5.23 ± 0.41	–	–
VNLEEIPGEGLLISWAFTDRPDLS [C2CD2L]	2.14 ± 0.15	2.08 ± 0.23	–	–
ETRPAKRITITESNMKSRYTTEFH [WEE1]	3.49 ± 0.27	3.6 ± 0.071	–	–
SAPDTMKRYSMYLTPKGGVRTSYQ [TRIM29]	2.94 ± 0.21	3.05 ± 0.16	–	–
FTNCYIYNKPTDDIVLMAQALEKI [BRD3]	2.43 ± 0.45	1.97 ± 0.12	–	–

Sequence	protein stability index [1]	protein stability index [2]	protein stability index (treatment: DMSO, c terminus: native)	protein stability index (treatment: MLN4924 1 uM, 8 h, c terminus: native)
TFFCPNDTYNDMATLFFNPQESAI [CLCN6]	2.23 ± 0.32	2.26 ± 0.22	–	–
KQGSMNFRFIPVLFPNAKKEHVPT [TRAF3IP2]	2.41 ± 0.41	2.48 ± 0.49	–	–
TGIVNHTHSRMGSIMSTGIVQGSS [CARM1]	3.12 ± 0.2	3.5 ± 0.63	–	–
FKWYLENVYPEMRVYNNTLTYGEV [GALNT9]	2.38 ± 0.48	2.43 ± 0.35	–	–
RRGRMALCGQAAGAASLPSELIVH [FBXO33]	2.96 ± 0.25	2.78 ± 0.32	–	–
RTKSRTWAGEKSKREMYSRLKKL [CDC25A]	–	–	4.36 ± 0.32	4.51 ± 0.38
DSDEATAARLLFNMAGVTFRKFIP [DCTD]	2.55 ± 0.19	2.58 ± 0.59	–	–
DDDAEEEGPKRELGVRRPGGAGKE [TCF25]	5.58 ± 0.2	5.66 ± 0.15	–	–
FEDAKEKMREFTKTIKRPFGVKYN [TPH1]	2.9 ± 0.21	3.1 ± 0.26	–	–
PQEESEESNVSMASLGEKRDHHST [CHGB]	5.59 ± 0.37	5.58 ± 0.16	–	–
FYQLVWSALPFITYLENKGHRYPC [POP5]	2.88 ± 0.69	3.09 ± 0.53	–	–
NSTGSGRGKKLMVLTEPILIETYT [TPRG1]	2.57 ± 0.18	2.75 ± 0.24	–	–
EADPPASDLPTPQAIEPQAIVQQV [SNX8]	5.34 ± 0.11	5.2 ± 0.24	–	–
VLETKWELLQQLDLNNCKNNLEPI [KRT71]	3.2 ± 0.17	3.17 ± 0.29	–	–
GACIVNSENKIVGIGYNGMPNGCS [DCTD]	3.04 ± 0.33	3.21 ± 0.43	–	–
QIPVTDSGRHILEDSCAELGESKE [SDE2]	5.35 ± 0.12	5.19 ± 0.38	–	–
KRPYAKELETVDFKDKLEETKGQI [SERPINB5]	5.12 ± 0.21	5.23 ± 0.14	–	–
LPLDDQVALLRAHAGEHLLLGATK [HNF4A]	3.6 ± 0.19	3.63 ± 0.19	–	–
